# Measurements: publication PMC7803729
# Biological target: CT-P59 monoclonal antibody (fully human IgG) (human)
# Assay: BLI
# CT-P59 monoclonal antibody (fully human IgG) (human), sequence (heavy, as listed by the source, chain 1 of 2): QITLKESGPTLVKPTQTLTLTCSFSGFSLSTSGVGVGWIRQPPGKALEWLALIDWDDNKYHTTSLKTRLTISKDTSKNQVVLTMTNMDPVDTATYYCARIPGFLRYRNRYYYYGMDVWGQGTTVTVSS
# CT-P59 monoclonal antibody (fully human IgG) (human), sequence (light, as listed by the source, chain 2 of 2): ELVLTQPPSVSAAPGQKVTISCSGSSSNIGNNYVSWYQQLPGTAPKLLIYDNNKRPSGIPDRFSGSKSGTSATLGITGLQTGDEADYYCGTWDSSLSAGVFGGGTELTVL
Substance,Kd [nM],koff [s⁻¹],kon [M⁻¹ s⁻¹]
"SARS-CoV-2 RBD W436R (commercial, Sino Biological) (from UniProt P0DTC2) (domain or fragment)",0.221,0.00018,816000
"SARS-CoV-2 RBD K458R (commercial, Sino Biological) (from UniProt P0DTC2) (domain or fragment)",0.236,0.000246,1.04e+06
"SARS-CoV-2 RBD N354D (commercial, Sino Biological) (from UniProt P0DTC2) (domain or fragment)",0.294,0.000253,861000
"SARS-CoV-2 RBD V367F (commercial, Sino Biological) (from UniProt P0DTC2) (domain or fragment)",0.292,0.000265,907000
